Positions count from the first letter of the chain named. In names and notes the source's numbering stands.
B1: C124A/M185V: double mutant (C124A/M185V) Renilla Luciferase protein (SEQ ID NO: 2) (protein)
chain: MASKVYDPEQRKRMITGPQWWARCKQMNVLDSFINYYDSEKHAENAVIFLHGNAASSYLWRHVVPHIEPVARCIIPDLIGMGKSGKSGNGSYRLLDHYKYLTAWFELLNLPKKIIFVGHDWGAALAFHYSYEHQDKIKAIVHAESVVDVIESWDEWPDIEEDIALIKSEEGEKMVLENNFFVETVLPSKIMRKLEPEEFAAYLEPFKEKGEVRRPTLSWPREIPLVKGGKPDVVQIVRNYNAYLRASDDLPKMFIESDPGFFSNAIVEGAKKFPNTEFVKVKGLHFSQEDAPDEMGKYIKSFVERVLKNEQ
modifications: Chemically synthesized Renilla Luciferase
B2: C124A/A143M: RLuc mutant C124A/A143M (protein)
chain: B1 chain with A143M, V185M
B3: C124A/S130A: RLuc mutant C124A/S130A (protein)
chain: B1 chain with S130A, V185M
B4: C124A/S287L: RLuc mutant C124A/S287L (protein)
chain: B1 chain with V185M, S287L
B5: C124A/K136R: RLuc mutant C124A/K136R (protein)
chain: B1 chain with K136R, V185M
B6: C124A/M253L: RLuc mutant C124A/M253L (protein)
chain: B1 chain with V185M, M253L

Test system: not listed separately
Assay: Serum stability in rat serum at 37° C.
Type: in vitro ADME
Conditions: mono-exponential fit
In short: (§1)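 Luciferase diluted into mouse or rat serum at 37° C; aliquots withdrawn over time for activity, half-life from mono-exponential decay fit. Emission spectra recorded at ambient temperature with a grating spectrometer and cooled CCD detector.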

Row | Molecule | Serum τ1/2 (h) rat [h]
1 | B1 | 3.7
2 | B2 | 29
3 | B3 | 14
4 | B4 | 20
5 | B5 | 11
6 | B6 | 10

Test system: not listed separately
Assay: Bioluminescence emission spectra
Type: physicochemical
Conditions: emission spectrum with native coelenterazine
In short: as §1

Row | Molecule | Wavelength (nm) mean [nm] | Wavelength (nm) peak [nm]
7 | B1 | 500 | 485
8 | B2 | 497 | 480
9 | B3 | 498 | 482
10 | B4 | 496 | 478
11 | B5 | 498 | 482
12 | B6 | 488 | 471

Test system: not listed separately
Assay: Quantum yield measurements
Type: biochemical
Conditions: benzyl-coelenterazine
Method: For quantum yield measurements, separate 1 μl drops of protein (about 2 pm) and substrate (0.2 pm) were placed in a tube, 100 μl of 100 mM sodium phosphate buffer (pH 7) was injected by the luminometer to mix, and the total light output was integrated (generally 5-10 min). For coelenterazine-n, the protein amount was increased 10 fold and the acquisition time lengthened to insure the reaction approached completion.

Row | Molecule | Quantum Yield (%) bc [%]
13 | B1 | 6.3 ± 0.1
14 | B2 | 3.5 ± 0.1
15 | B3 | 3.4 ± 0.04
16 | B4 | 5.0 ± 0.1
17 | B5 | 3.3 ± 0.1
18 | B6 | 3.5 ± 0.1

Same assay, conditions: bisdeoxycoelenterazine

Row | Molecule | Quantum Yield (%) bdc
19 | B1 | (174.4 ± 6.7) × 10^−3%
20 | B2 | (6.3 ± 0.7) × 10^−3%
21 | B3 | (6.7 ± 0.3) × 10^−3%
22 | B4 | (20.9 ± 0.6) × 10^−3%
23 | B5 | (7.1 ± 0.3) × 10^−3%
24 | B6 | (7.6 ± 0.3) × 10^−3%

Same assay, conditions: coelenterazine-cp

Row | Molecule | Quantum Yield (%) cp [%]
25 | B1 | 10.1 ± 0.2
26 | B2 | 4.8 ± 0.1
27 | B3 | 5.0 ± 0.1
28 | B4 | 7.2 ± 0.3
29 | B5 | 5.1 ± 0.1
30 | B6 | 5.1 ± 0.2

Same assay, conditions: coelenterazine-n

Row | Molecule | Quantum Yield (%) n [%]
31 | B1 | 9.4 ± 0.4
32 | B2 | 5.8 ± 0.2
33 | B3 | 5.9 ± 0.2
34 | B4 | 7.7 ± 0.2
35 | B5 | 6.0 ± 0.1
36 | B6 | 5.8 ± 0.1

Same assay, conditions: native coelenterazine

Row | Molecule | Quantum Yield (%) native [%]
37 | B1 | 6.9 ± 0.3
38 | B2 | 5.2 ± 0.3
39 | B3 | 5.3 ± 0.1
40 | B4 | 6.1 ± 0.2
41 | B5 | 5.4 ± 0.1
42 | B6 | 5.5 ± 0.1

Test system: 293T cells
Assay: Mammalian expression, transient transfection, light output in 293T cells
Type: cell-based, human
Conditions: mammalian cells (293T or CHO)
Text: (§2) Mammalian Expression: In order to construct mammalian expression vectors, bacterial expression vectors containing the desired mutations were used as templates for PCR, with primers designed such that the N-terminal pelB sequence would be replaced by a methionine codon and a C-terminal stop codon would replace the Myc epitope and 6×His tag. The primers also contained appropriate NheI and HindIII restriction sites to allow insertion of the product into the pcDNA 3.1 plasmid (Invitrogen). The resultant plasmids were transiently transfected using SuperFect (Qiagen) into 293T or Chinese Hamster Ovarian (CHO, ATCC# CCL-61) cells growing in 24 well plates following the manufacturer's protocol. Twenty-four hours post transfection, 0.5 μg/well of coelenterazine was added, and the plates were imaged in an IVIS 50 imaging system (Xenogen, Alameda, Calif.).

Row | Molecule | increase in light relative to C124A after transient transfection into mammalian cells
43 | B1 | approximately 3 fold

Same assay, conditions: pcDNA 3.1 CMV plasmid, 24 hours post transfection, coelenterazine

Row | Molecule | Light output after transient transfection, 293T
44 | B1 | 174.1 ± 25.7 photons × 10^6/s/cm^2/steradian

Test system: not listed separately
Assay: Luciferase activity of purified RLuc mutants (light output integrated over 10 s, luminometer)
Type: biochemical
Conditions: benzyl-coelenterazine; relative to native enzyme
In short: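 Purified RLuc mutant sample, diluted in EB with 1% HSA, added to room-temperature 100 mM sodium phosphate (pH 7), then 1 μl of 0.5 μg/μl coelenterazine or analog mixed in manually. Light read for 10 s starting ~4 s after luciferin addition. Luminometer calibrated to photons/s against luminol standard in DMSO.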

Row | Activity (relative to RLuc) bc | Molecule
45 | 3.0 | B1
46 | 1.3 | B2
47 | 1.4 | B3
48 | 2.8 | B4
49 | 2.1 | B5
50 | 1.4 | B6

Same assay, conditions: bisdeoxycoelenterazine (Coelenterazine 400a)

Row | light output compared to M185V alone [fold] | Molecule
51 | 2 | B1

Same assay, conditions: bisdeoxycoelenterazine; relative to native enzyme

Row | Activity (relative to RLuc) bdc | Molecule
52 | 44 | B1
53 | 1.6 | B2
54 | 2.6 | B3
55 | 9.5 | B4
56 | 2.6 | B5
57 | 1.7 | B6

Same assay, conditions: coelenterazine-cp; relative to native enzyme

Row | Activity (relative to RLuc) cp | Molecule
58 | 15 | B1
59 | 0.95 | B2
60 | 1.7 | B3
61 | 3.4 | B4
62 | 1.9 | B5
63 | 1.6 | B6

Same assay, conditions: coelenterazine-n; relative to native enzyme

Row | Activity (relative to RLuc) n | Molecule
64 | 7.8 | B1
65 | 1.5 | B2
66 | 1.4 | B3
67 | 5.0 | B4
68 | 1.9 | B5
69 | 1.6 | B6

Same assay, conditions: in vitro

Row | increase in activity compared to the C124A mutant | Molecule
70 | approximately 3 fold | B1

Same assay, conditions: native coelenterazine; relative to native enzyme

Row | Activity (relative to RLuc) native | Molecule
71 | 3.4 | B1
72 | 1.7 | B2
73 | 1.7 | B3
74 | 3.9 | B4
75 | 2.5 ± 0.3 | B5
76 | 1.9 | B6

Molecular target: MDR1 P-glycoprotein (Pgp) (Homo sapiens, UniProt P08183)
Sequence (P08183 whole entry): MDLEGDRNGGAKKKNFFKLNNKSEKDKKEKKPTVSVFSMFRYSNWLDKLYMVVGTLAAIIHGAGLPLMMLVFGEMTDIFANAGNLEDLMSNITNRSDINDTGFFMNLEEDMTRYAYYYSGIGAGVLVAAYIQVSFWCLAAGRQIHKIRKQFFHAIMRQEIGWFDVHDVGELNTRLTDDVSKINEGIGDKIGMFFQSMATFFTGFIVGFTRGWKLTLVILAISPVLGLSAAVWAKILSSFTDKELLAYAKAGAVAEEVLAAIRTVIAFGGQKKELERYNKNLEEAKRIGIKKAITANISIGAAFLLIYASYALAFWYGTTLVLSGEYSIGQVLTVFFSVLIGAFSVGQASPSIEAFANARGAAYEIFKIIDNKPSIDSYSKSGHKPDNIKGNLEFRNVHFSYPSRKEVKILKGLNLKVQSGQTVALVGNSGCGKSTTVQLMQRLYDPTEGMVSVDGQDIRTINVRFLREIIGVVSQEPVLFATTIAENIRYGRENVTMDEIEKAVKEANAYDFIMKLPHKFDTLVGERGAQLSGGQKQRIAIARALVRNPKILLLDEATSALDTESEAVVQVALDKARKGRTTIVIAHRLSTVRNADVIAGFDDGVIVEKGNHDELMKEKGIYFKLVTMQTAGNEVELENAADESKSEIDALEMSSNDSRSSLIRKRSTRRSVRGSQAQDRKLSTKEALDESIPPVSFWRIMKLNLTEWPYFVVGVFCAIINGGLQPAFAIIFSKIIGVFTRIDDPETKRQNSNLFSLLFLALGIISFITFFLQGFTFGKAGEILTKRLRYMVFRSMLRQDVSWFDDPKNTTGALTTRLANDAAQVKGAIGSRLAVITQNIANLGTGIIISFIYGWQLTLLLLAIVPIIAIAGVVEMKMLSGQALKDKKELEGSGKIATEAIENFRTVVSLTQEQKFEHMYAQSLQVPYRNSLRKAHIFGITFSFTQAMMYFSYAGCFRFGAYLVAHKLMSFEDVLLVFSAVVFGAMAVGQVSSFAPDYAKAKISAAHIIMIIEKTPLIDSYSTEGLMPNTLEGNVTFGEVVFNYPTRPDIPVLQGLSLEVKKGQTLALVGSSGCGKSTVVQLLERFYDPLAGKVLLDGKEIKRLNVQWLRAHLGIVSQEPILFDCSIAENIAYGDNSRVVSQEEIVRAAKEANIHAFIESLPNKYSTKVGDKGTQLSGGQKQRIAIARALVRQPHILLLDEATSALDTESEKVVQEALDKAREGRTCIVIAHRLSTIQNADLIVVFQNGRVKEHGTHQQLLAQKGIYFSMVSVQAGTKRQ
Assay: not given
Conditions: cited from earlier work

Row | Molecule | substrate for MDR1 P-glycoprotein (Pgp)
77 | Coelenterazine-n | not substrates for Pgp

Same assay, conditions: mammalian cells; cited from earlier work

Row | Molecule | substrate for MDR1 P-glycoprotein (Pgp)
78 | Oc1ccc(Cc2nc3c(Cc4ccccc4)nc(-c4ccc(O)cc4)cn3c2O)cc1 [coelenterazine, Coelenterazine] | is a substrate for MDR1 P-glycoprotein
79 | Oc1ccc(Cc2nc3c(CC4CCCC4)nc(-c4ccc(O)cc4)cn3c2O)cc1 [coelenterazine-cp] | not substrates for Pgp

Test system: not listed separately
Assay: Serum stability in mouse serum at 37° C.
Type: in vitro ADME
Conditions: mouse serum, 37° C., mono-exponential fit
In short: as §1

Row | Molecule | Serum τ1/2 (h) mouse [h]
80 | B1 | 5.7
81 | B2 | 30
82 | B3 | 18
83 | B4 | 28
84 | B5 | 12
85 | B6 | 15

Test system: CHO cells
Assay: Mammalian expression, transient transfection, light output in CHO cells
Type: cell-based, Chinese Hamster
Conditions: pcDNA 3.1 CMV plasmid, 24 hours post transfection, coelenterazine
Text: as §2

Row | Molecule | Light output after transient transfection, CHO
86 | B1 | 172.4 ± 8.4 photons × 10^6/s/cm^2/steradian

From US7842469B2, “Bioluminescence resonance energy transfer (BRET) systems and methods of use thereof” (Stanford University, priority 2005, dated 2010)
